Data on 15 molecules can be found in PMC12816604, “Structural basis of double-stranded RNA recognition by the J2 monoclonal antibody”.

What is called Kd is the equilibrium constant for the complex coming apart. What is called IC50 is the concentration that gives 50% inhibition.

Series [1] concerns J2 IgG WT, PDB:9OJV_1+PDB:9OJV_2. Nature of the series: FP. The note with it: BLI: 25 mM Tris-HCl pH 7.5, 100-400 mM KCl (per row), 2 mM MgCl2, 25 C, IgG immobilized on Protein A; FP: 25 mM Tris-HCl pH 7.5, 100 mM KCl, 2 mM MgCl2, 21 C.
The subject of series [2] is J2 IgG HC Y54A, PDB:9OJV_1+PDB:9OJV_2. Nature of the series: BLI steady state. The note with it: 100 mM KCl; kinetic Kd 270 ± 10 nM; BLI: 25 mM Tris-HCl pH 7.5, 100-400 mM KCl (per row), 2 mM MgCl2, 25 C, IgG immobilized on Protein A; FP: 25 mM Tris-HCl pH 7.5, 100 mM KCl, 2 mM MgCl2, 21 C.
The subject of series [3] is J2 IgG WT, PDB:9OJV_1+PDB:9OJV_2. Nature of the series: BLI steady state. Particulars: BLI: 25 mM Tris-HCl pH 7.5, 100-400 mM KCl (per row), 2 mM MgCl2, 25 C, IgG immobilized on Protein A, FP: 25 mM Tris-HCl pH 7.5, 100 mM KCl, 2 mM MgCl2, 21 C.
For series [4], the system named is J2 IgG HC Y54F, PDB:9OJV_1+PDB:9OJV_2. Nature of the series: BLI steady state. The note with it: 100 mM KCl; kinetic Kd 250 ± 40 nM; BLI: 25 mM Tris-HCl pH 7.5, 100-400 mM KCl (per row), 2 mM MgCl2, 25 C, IgG immobilized on Protein A; FP: 25 mM Tris-HCl pH 7.5, 100 mM KCl, 2 mM MgCl2, 21 C.
In series [5] the test system is J2 IgG LC Y31F, PDB:9OJV_1+PDB:9OJV_2. Nature of the series: BLI steady state. The note with it: 100 mM KCl; kinetic Kd 130 ± 20 nM; BLI: 25 mM Tris-HCl pH 7.5, 100-400 mM KCl (per row), 2 mM MgCl2, 25 C, IgG immobilized on Protein A; FP: 25 mM Tris-HCl pH 7.5, 100 mM KCl, 2 mM MgCl2, 21 C.
Series [6] concerns J2 IgG LC Y38F, PDB:9OJV_1+PDB:9OJV_2. Nature of the series: BLI steady state. The note with it: 100 mM KCl; kinetic Kd 83 ± 14 nM; BLI: 25 mM Tris-HCl pH 7.5, 100-400 mM KCl (per row), 2 mM MgCl2, 25 C, IgG immobilized on Protein A; FP: 25 mM Tris-HCl pH 7.5, 100 mM KCl, 2 mM MgCl2, 21 C.
Series [7] relates to J2 IgG HC Y52F, PDB:9OJV_1+PDB:9OJV_2. Nature of the series: BLI steady state. Particulars: 100 mM KCl; kinetic Kd 210 ± 20 nM; BLI: 25 mM Tris-HCl pH 7.5, 100-400 mM KCl (per row), 2 mM MgCl2, 25 C, IgG immobilized on Protein A; FP: 25 mM Tris-HCl pH 7.5, 100 mM KCl, 2 mM MgCl2, 21 C.
The test system of series [8] is J2 IgG HC Y50F, PDB:9OJV_1+PDB:9OJV_2. Nature of the series: BLI steady state. The note with it: 100 mM KCl; kinetic Kd 94 ± 49 nM; BLI: 25 mM Tris-HCl pH 7.5, 100-400 mM KCl (per row), 2 mM MgCl2, 25 C, IgG immobilized on Protein A; FP: 25 mM Tris-HCl pH 7.5, 100 mM KCl, 2 mM MgCl2, 21 C.
The subject of series [9] is J2 IgG LC Y31A, PDB:9OJV_1+PDB:9OJV_2. Nature of the series: BLI steady state. The note with it: 100 mM KCl; kinetic Kd 207 ± 21 nM; BLI: 25 mM Tris-HCl pH 7.5, 100-400 mM KCl (per row), 2 mM MgCl2, 25 C, IgG immobilized on Protein A; FP: 25 mM Tris-HCl pH 7.5, 100 mM KCl, 2 mM MgCl2, 21 C.
Series [10] relates to J2 IgG HC A30P, PDB:9OJV_1+PDB:9OJV_2. Nature of the series: BLI steady state. The note with it: 100 mM KCl; kinetic Kd 28 ± 14 nM; BLI: 25 mM Tris-HCl pH 7.5, 100-400 mM KCl (per row), 2 mM MgCl2, 25 C, IgG immobilized on Protein A; FP: 25 mM Tris-HCl pH 7.5, 100 mM KCl, 2 mM MgCl2, 21 C.
Series [11] relates to J2 IgG WT, PDB:9OJV_1+PDB:9OJV_2. Nature of the series: FP competition. The note with it: vs 3'-FAM VA-I RNA; BLI: 25 mM Tris-HCl pH 7.5, 100-400 mM KCl (per row), 2 mM MgCl2, 25 C, IgG immobilized on Protein A; FP: 25 mM Tris-HCl pH 7.5, 100 mM KCl, 2 mM MgCl2, 21 C.
Series [12] addresses T1, J2 IgG heavy chain (HC-TEV-His8);J2 IgG light chain (Mus musculus;Mus musculus, UniProt ; ;, |). Nature of the series: BLI; 200 mM KCl; BLI: 25 mM Tris-HCl pH 7.5, 2 mM MgCl2, KCl 100 mM (6-20 bp and mutants), 200 mM (30 bp) or 400 mM (40, 50 bp), 25 C; IgG immobilised on Protein A probes. Particulars: protein: recombinant;recombinant, tags: His8 (C-term);, chain copies: 2;2. (In general: BLI is a label-free optical method that tracks binding on a fibre tip over time.)

The target in series [13] is T1, J2 IgG heavy chain (HC-TEV-His8);J2 IgG …. Nature of the series: BLI; 400 mM KCl; BLI: 25 mM Tris-HCl pH 7.5, 2 mM MgCl2, KCl 100 mM (6-20 bp and mutants), 200 mM (30 bp) or 400 mM (40, 50 bp), 25 C; IgG immobilised on Protein A probes. The note with it: protein: recombinant;recombinant, tags: His8 (C-term);, chain copies: 2;2.
Series [14] has the same target. Nature of the series: BLI; 100 mM KCl; BLI: 25 mM Tris-HCl pH 7.5, 2 mM MgCl2, KCl 100 mM (6-20 bp and mutants), 200 mM (30 bp) or 400 mM (40, 50 bp), 25 C; IgG immobilised on Protein A probes. The note with it: protein: recombinant;recombinant; tags: His8 (C-term);; chain copies: 2;2; blunt.

T1 sequence (chain, as listed by the source |, chain 1 of 2): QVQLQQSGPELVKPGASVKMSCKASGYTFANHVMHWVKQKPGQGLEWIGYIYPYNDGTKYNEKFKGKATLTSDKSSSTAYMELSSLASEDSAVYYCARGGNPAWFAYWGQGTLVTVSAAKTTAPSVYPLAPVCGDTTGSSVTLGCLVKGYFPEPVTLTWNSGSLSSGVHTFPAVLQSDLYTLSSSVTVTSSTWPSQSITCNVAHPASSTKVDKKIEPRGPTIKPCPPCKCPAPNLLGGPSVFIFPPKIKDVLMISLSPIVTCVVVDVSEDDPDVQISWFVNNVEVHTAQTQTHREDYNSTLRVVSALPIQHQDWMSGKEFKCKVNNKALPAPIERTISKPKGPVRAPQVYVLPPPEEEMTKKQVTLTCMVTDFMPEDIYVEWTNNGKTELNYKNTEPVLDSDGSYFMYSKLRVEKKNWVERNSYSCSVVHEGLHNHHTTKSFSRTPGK
T1 sequence (chain, as listed by the source |, chain 2 of 2): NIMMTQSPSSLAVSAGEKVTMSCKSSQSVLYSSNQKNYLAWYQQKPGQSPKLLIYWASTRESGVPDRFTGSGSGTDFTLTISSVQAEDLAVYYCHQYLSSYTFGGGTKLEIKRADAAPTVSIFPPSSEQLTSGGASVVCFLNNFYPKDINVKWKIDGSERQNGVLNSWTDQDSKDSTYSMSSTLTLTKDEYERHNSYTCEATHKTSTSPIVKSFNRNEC

On to 3'-FAM Adenovirus VA-I RNA, for which the Kd in series [1] was 32 nM.
Regarding “GUUGUAAAGAAAUAUAGGCU / AGCCUAUAUUUCUUUACAAC [20-bp dsRNA]”, the Kd in [2] came to 300 nM; in series [3] (100 mM KCl, kinetic Kd 150 ± 80 nM), 120 nM; in series [4] it was 710 nM; in [5], 360 nM; in series [6], 150 nM; in series [7] it was 220 nM. Also, the Kd is 430 nM in series [8], 940 nM in series [9] and 120 nM in series [10].
Molecule “GUUGUAAAGAAGGU / ACCUUCUUUACAAC [14-bp dsRNA]” gave a Kd in [3] (100 mM KCl, kinetic Kd 1400 ± 800 nM) of 2100 nM.
Consider “GUUGUAAAGAAAUAUAACAGGCUUGUACCAUUGAUGGAAAAGAACAACGU / ACGUUGUUCUUUUCCAUCAAUGGUACAAGCCUGUUAUAUUUCUUUACAAC [50-bp dsRNA]”, for which the IC50 in series [11] was found to be 17 nM. This molecule returned a Kd in series [3] of 22 nM.
With “GUUGUAAAGAAAUAUAACAGGCUUGUACCAUUGAUGGAAA / UUUCCAUCAAUGGUACAAGCCUGUUAUAUUUCUUUACAAC [40-bp dsRNA]”, the Kd in series [3] (400 mM KCl, kinetic Kd 33 ± 6 nM) was determined as 80 nM.
“GUUGUAAAGAAAUAUAACAGGCUUGUACCA / UGGUACAAGCCUGUUAUAUUUCUUUACAAC [30-bp dsRNA]”: the Kd in series [3] (200 mM KCl, kinetic Kd 37 ± 7 nM) is 47 nM.

B1: 30-bp dsRNA 47% GC (dsRNA)
RNA 1: GUUGUCCAGAAGGUCAAUAGCGUACCAAAC
RNA 2: GUUUGGUACGCUAUUGACCUUCUGGACAAC
On to B1, for which the Kd in series [12] (blunt) is 110 ± 20 nM.

B2: 30-bp dsRNA 0% GC (dsRNA)
RNA 1: AUUAUAAAUAAUUUAAAUAUUAUAUUAAAU
RNA 2: AUUUAAUAUAAUAUUUAAAUUAUUUAUAAU
Regarding B2, the Kd in series [12] came to 290 ± 60 nM.

B3: 40-bp dsRNA (dsRNA)
RNA 1: GUUGUAAAGAAGGUCAAUAUUGUACCAAACUUGAUGGAAA
RNA 2: UUUCCAUCAAGUUUGGUACAAUAUUGACCUUCUUUACAAC
Turning to B3, the Kd in series [13] (blunt) turned out to be 80 ± 15 nM.

B4: 30-bp dsRNA 17% GC (dsRNA)
RNA 1: GUUGUAAAUAAGUUCAAUAUUAUACUAAAU
RNA 2: AUUUAGUAUAAUAUUGAACUUAUUUACAAC
As to B4, the Kd in series [12] (blunt) worked out at 36 ± 22 nM.

B5: 30-bp dsRNA 3% GC (dsRNA)
RNA 1: AUUAUAAAUAAUUUCAAUAUUAUAUUAAAU
RNA 2: AUUUAAUAUAAUAUUGAAAUUAUUUAUAAU
In the case of B5, in series [12], the Kd worked out at 220 ± 90 nM.

B6: 50-bp dsRNA (dsRNA)
RNA 1: GUUGUAAAGAAGGUCAAUAUUGUACCAAACUUGAUGGAAAAGAACAACGU
RNA 2: ACGUUGUUCUUUUCCAUCAAGUUUGGUACAAUAUUGACCUUCUUUACAAC
Take B6: the Kd in series [13] (blunt) amounted to 22 ± 8 nM.

B7: 14-bp dsRNA (dsRNA)
RNA 1: GUUGUAAAGAAGGU
RNA 2: ACCUUCUUUACAAC
As for B7, the Kd in series [14] is 2100 ± 600 nM.

B8: 40-bp AU-dinucleotide dsRNA (dsRNA)
RNA 1: AUAUAUAUAUAUAUAUAUAUAUAUAUAUAUAUAUAUAUAU
RNA 2: AUAUAUAUAUAUAUAUAUAUAUAUAUAUAUAUAUAUAUAU
For B8, the Kd in [13] amounted to 91 ± 11 nM.

B9: 6-bp dsRNA (dsRNA)
RNA 1: GUUGUA
RNA 2: UACAAC
For the molecule B9, the binding result in series [14] was “no binding”.
